# From article PMC7133768
# Key:
# Test in all cases: oxygen consumption assay
# Assay type in all cases: biochemical, Chloracidobacterium thermophilum
# oxygen consumption assay [1] = substrate: N[C@@H](CS)C(=O)O; conditions: co-substrate hercynine
# oxygen consumption assay [2] = substrate: C[N+](C)(C)[C@@H](Cc1cnc[nH]1)C(=O)[O-]; conditions: co-substrate L-Cys
# oxygen consumption assay [3] = substrate: N[C@@H](CCC(=O)N[C@@H](CS)C(=O)O)C(=O)O; conditions: co-substrate hercynine
protein,measurement,setting,value
EgtBCth (Cabther_A1318) (Chloracidobacterium thermophilum B; A420Y/D52L) (protein) EAARSHPEPIQSGEVSDRKAWQRHYRAVRAVSEAICQPLETEDYVVQPMPLVSPPKWHLGHTSWFFETFILKSGLADYRPFHPRYDYIFNSYYEAVGARHPRPQRGLLTRPTVSEVYAYRAHVDAAVERFIAHSDTRTWAALQPILELGLHHEQQHQELLLTDIKAILATNPLDPVYRPQPQPLPSPVEQLSPTGDWHIVEGGRYAIGHAGRGFAFDNEGPRHDVLLRPCRIAARPVTNGEFLAFMADGGYRRPELWLSDGWAAVTARGWEAPLYWRQAADGTWETLTLHGVQPVAPYEPVCHISFYEADAYARWAGKRLPTEAEWEVVAARLPVTGNFYESGVLHPRPVSVSAAFYGDVWVWTASPYVGYPGFRPVSGALGEYNGKFMCNQMVLRGGSCATSLTHIRSTYRNFFPPDYRWQFTGVRLAEDMS,Km,oxygen consumption assay [1],48.7 ± 3.5 µM
same,kcat,oxygen consumption assay [1],0.545 ± 0.005 s⁻¹
same,kcat/Km,oxygen consumption assay [1],11200 ± 667 M⁻¹ s⁻¹
same,Km,oxygen consumption assay [2],23.3 ± 1.2 µM
same,kcat,oxygen consumption assay [2],0.545 ± 0.005 s⁻¹
same,kcat/Km,oxygen consumption assay [2],23300 ± 1170 M⁻¹ s⁻¹
EgtBCth (Cabther_A1318) (Chloracidobacterium thermophilum B) (protein) EAARSHPEPIQSGEVSDRKAWQRHYRAVRAVSEAICQPLETEDYVVQPMPDVSPPKWHLGHTSWFFETFILKSGLADYRPFHPRYDYIFNSYYEAVGARHPRPQRGLLTRPTVSEVYAYRAHVDAAVERFIAHSDTRTWAALQPILELGLHHEQQHQELLLTDIKAILATNPLDPVYRPQPQPLPSPVEQLSPTGDWHIVEGGRYAIGHAGRGFAFDNEGPRHDVLLRPCRIAARPVTNGEFLAFMADGGYRRPELWLSDGWAAVTARGWEAPLYWRQAADGTWETLTLHGVQPVAPYEPVCHISFYEADAYARWAGKRLPTEAEWEVVAARLPVTGNFYESGVLHPRPVSVSAAFYGDVWVWTASPYVGYPGFRPVSGALGEYNGKFMCNQMVLRGGSCATSLTHIRSTYRNFFPPDARWQFTGVRLAEDMS,Km,oxygen consumption assay [1],205 ± 18 µM
same,kcat/Km,oxygen consumption assay [1],2170 ± 167 M⁻¹ s⁻¹
same,kcat/Km,oxygen consumption assay [3],50 ± 8.33 M⁻¹ s⁻¹
same,Km,oxygen consumption assay [2]; Fe(II) enzyme,87.7 ± 7.6 µM
EgtBCth (Cabther_A1318) (Chloracidobacterium thermophilum B; A420Y) (protein) EAARSHPEPIQSGEVSDRKAWQRHYRAVRAVSEAICQPLETEDYVVQPMPDVSPPKWHLGHTSWFFETFILKSGLADYRPFHPRYDYIFNSYYEAVGARHPRPQRGLLTRPTVSEVYAYRAHVDAAVERFIAHSDTRTWAALQPILELGLHHEQQHQELLLTDIKAILATNPLDPVYRPQPQPLPSPVEQLSPTGDWHIVEGGRYAIGHAGRGFAFDNEGPRHDVLLRPCRIAARPVTNGEFLAFMADGGYRRPELWLSDGWAAVTARGWEAPLYWRQAADGTWETLTLHGVQPVAPYEPVCHISFYEADAYARWAGKRLPTEAEWEVVAARLPVTGNFYESGVLHPRPVSVSAAFYGDVWVWTASPYVGYPGFRPVSGALGEYNGKFMCNQMVLRGGSCATSLTHIRSTYRNFFPPDYRWQFTGVRLAEDMS,Km,oxygen consumption assay [1],28.1 ± 1.8 µM
same,kcat/Km,oxygen consumption assay [1],16300 ± 1000 M⁻¹ s⁻¹
same,Km,oxygen consumption assay [2],39.2 ± 1.6 µM
same,kcat/Km,oxygen consumption assay [2],11700 ± 500 M⁻¹ s⁻¹
EgtBCth (Cabther_A1318) (Chloracidobacterium thermophilum B; D52L) (protein) EAARSHPEPIQSGEVSDRKAWQRHYRAVRAVSEAICQPLETEDYVVQPMPLVSPPKWHLGHTSWFFETFILKSGLADYRPFHPRYDYIFNSYYEAVGARHPRPQRGLLTRPTVSEVYAYRAHVDAAVERFIAHSDTRTWAALQPILELGLHHEQQHQELLLTDIKAILATNPLDPVYRPQPQPLPSPVEQLSPTGDWHIVEGGRYAIGHAGRGFAFDNEGPRHDVLLRPCRIAARPVTNGEFLAFMADGGYRRPELWLSDGWAAVTARGWEAPLYWRQAADGTWETLTLHGVQPVAPYEPVCHISFYEADAYARWAGKRLPTEAEWEVVAARLPVTGNFYESGVLHPRPVSVSAAFYGDVWVWTASPYVGYPGFRPVSGALGEYNGKFMCNQMVLRGGSCATSLTHIRSTYRNFFPPDARWQFTGVRLAEDMS,Km,oxygen consumption assay [1],47.3 ± 2.4 µM
same,Km,oxygen consumption assay [2],13.2 ± 1.3 µM
